Legend:
[1] = test system: stationary phase S. aureus NRS-14; assay: turbidity reduction assay (lytic activity); type: cell-based, Staphylococcus aureus; conditions: equimolar concentrations; for lytic activity (in words): isolated domain
Experimental: Lytic activity was based on turbidity reduction assay (Nelson D C et al. (2012) Endolysins as antimicrobials. Adv Virus Res 83:299-365). Briefly, bacterial cells were centrifuged (4,000 RPM, 5 minutes, 4° C.), re-suspended in buffer and mixed 1:1 (v/v) with endolysin to a final OD600=1. OD600 readings were taken every 15 seconds for 20 minutes at 37° C. Endolysin activity was equated to the Vmax dictated by the linear portion of the resulting killing curve. Each experiment was performed in triplicate.
To determine dose response, PlyGRCS was serially diluted and each dosage (100 μl) was added in triplicate to a 96-well polystyrene microtiter plate (Nest Biotech Co, Ltd) just before addition of bacterial cells (100 μl) according to the turbidity reduction assay described above. For optimum pH determination, bacterial cells were suspended in 40 mM boric acid/phosphoric acid (BP) buffer, pH 3-11, and were challenged against PlyGRCS. The influence of NaCl on PlyGRCS activity was tested in BP buffer at the experimentally determined pH optimum using the same assay. The effect of divalent cations was determined using the turbidity reduction assay with several modifications. First, PlyGRCS was incubated at room temperature in PBS or PBS supplemented with 5 mM EDTA for 10 minutes. Second, the EDTA-treated samples received either no further treatment, or were supplemented with 6 mM CaCl2 or 6 mM MgCl2. Finally, the lytic active of the samples was then immediately assayed and compared to PlyGRCS in PBS prior to EDTA inactivation. Kinetic stability was evaluated (Son B et al. (2012) Characterization of LysB4, an endolysin from the Bacillus cereus-infecting bacteriophage B4. BMC Microbiol 12:33) with minor modifications. Lytic assays were performed in optimal conditions after PlyGRCS was incubated at indicated temperatures for 30 minutes and subsequently recovered on ice for 5 minutes.

[2] = circular dichroism melting experiments; type: physicochemical; conditions: 0.1 mg/ml, 20 mM sodium phosphate buffer pH 7, 20-95° C. at 1° C./min
Experimental: CD experiments for wild-type (WT) and active-site mutants were performed on a Chirascan CD spectrometer (Applied Photophysics) equipped with a thermoelectrically controlled cell holder. CD spectra were obtained in the far-UV range (190-260 nm) in a 1 mm path length quartz cuvette at 1 nm steps with 5 second signal averaging per data point. Spectra were collected in triplicate, followed by averaging, baseline subtraction, smoothing and conversion to mean residue ellipticity (MRE) by the Pro-Data software (Applied Photophysics). Secondary structure prediction was performed using the Provencher and Glockner method (Provencher S W & Glockner J (1981) Estimation of globular protein secondary structure from circular dichroism. Biochemistry 20(1):33-7) provided by DICHROWEB (Whitmore L & Wallace B A (2004) DICHROWEB, an online server for protein secondary structure analyses from circular dichroism spectroscopic data. Nucleic Acids Res 32:W668-73).
Melting experiments were performed by heating PlyGRCS at a 0.1 mg/ml concentration in 20 mM sodium phosphate buffer pH 7 from 20° C. to 95° C. using a 1° C./min heating rate. MRE was monitored at 218 nm in a 1 mm path length quartz cuvette at 0.5° C. steps with 5 second signal averaging per data point. The melting data was smoothed, normalized and fit with a Boltzmann sigmoidal curve. The first derivative of the melting curve was then taken to determine the temperature (Tm) at which the folded and unfolded protein species in solution were at equilibrium (Fallas J A & Hartgerink J D (2012) Computational design of self-assembling register-specific collagen heterotrimers. Nat Commun 3:1087).

S. aureus NRS-14 = assay: cell wall binding by fluorescence microscopy; design: species or system Staphylococcus aureus; conditions: 10 μg, detected via anti-His antibody and AlexaFluor 488 secondary
Experimental: An overnight culture of S. aureus NRS-14 was concentrated 5× in BP buffer and was incubated at room temperature with 10 μg SH3_5GRCS containing the 6× His tag for 10 minutes. A control without SH3_5GRCS was also utilized. The samples were washed with PBS and incubated for 10 minutes at room temperature with 1 μl mouse anti-His antibody (Gen Script). After washing with PBS, AlexaFluor-488 conjugated goat anti-mouse IgG (H+L) antibody (1 μl) (Invitrogen) was incubated with samples for an additional 10 minutes. Samples were washed again with PBS before being visualized via fluorescence and bright field microscopy. An Eclipse 80i epifluorescent microscope workstation (Nikon) with X-Cite 120 illuminator (EXFO) and Retiga 2000R CCD camera was used. NIS-Elements software (Nikon) was used for image analysis.

[3] = test system: Streptococcus equi, ATCC 9528; assay: plate lysis assay (spectrum of lytic activity); type: cell-based; design: key: strong lytic zone = ++; weak lytic zone = +; no lytic zone = −; conditions: 6 μg
Experimental: (§1) The PlyGRCS spectrum of lytic activity was performed (Schmelcher M et al. (2012) Chimeric phage lysins act synergistically with lysostaphin to kill mastitis-causing Staphylococcus aureus in murine mammary glands. Appl Environ Microbiol 78(7):2297-305) with minor modifications. Bacterial cells were diluted in sterile PBS to an OD600=1, and 100 μl was spread on each plate. 10 μl spots (600 μg/ml) of PlyGRCS or CHAPGRCS were applied. Plates were incubated overnight at 37° C. Strength of lytic zones was defined qualitatively.

[4] = test system: Streptococcus uberis, ATCC 700407; assay: plate lysis assay (spectrum of lytic activity); type: cell-based; design: key: strong lytic zone = ++; weak lytic zone = +; no lytic zone = −; conditions: 6 μg
Experimental: as §1

[5] = test system: Streptococcus suis, 730082; assay: plate lysis assay (spectrum of lytic activity); type: cell-based; design: key: strong lytic zone = ++; weak lytic zone = +; no lytic zone = −; conditions: 6 μg
Experimental: as §1

[6] = test system: Enterococcus facealis, EF24; assay: plate lysis assay (spectrum of lytic activity); type: cell-based; design: key: strong lytic zone = ++; weak lytic zone = +; no lytic zone = −; conditions: 6 μg
Experimental: as §1

[7] = test system: Streptococcus pyogenes, D471; assay: plate lysis assay (spectrum of lytic activity); type: cell-based; design: key: strong lytic zone = ++; weak lytic zone = +; no lytic zone = −; conditions: 6 μg
Experimental: as §1

[8] = test system: Staphylococcus aureus, NRS-385; assay: plate lysis assay (spectrum of lytic activity); type: cell-based; design: key: strong lytic zone = ++; weak lytic zone = +; no lytic zone = −; conditions: 6 μg; S. aureus NRS-385, MRSA
Experimental: as §1

Bacillus pumulis, BJ0055 = assay: plate lysis assay (spectrum of lytic activity); type: cell-based; design: key: strong lytic zone = ++; weak lytic zone = +; no lytic zone = −; conditions: 6 μg
Experimental: as §1

[9] = test system: Staphylococcus aureus, NRS-382; assay: plate lysis assay (spectrum of lytic activity); type: cell-based; design: key: strong lytic zone = ++; weak lytic zone = +; no lytic zone = −; conditions: 6 μg; S. aureus NRS-382, MRSA
Experimental: as §1

[10] = test system: Streptococcus pneumoniae, ATCC BAA-334; assay: plate lysis assay (spectrum of lytic activity); type: cell-based; design: key: strong lytic zone = ++; weak lytic zone = +; no lytic zone = −; conditions: 6 μg
Experimental: as §1

[11] = test system: Staphylococcus aureus, NRS-384; assay: plate lysis assay (spectrum of lytic activity); type: cell-based; design: key to strength of lytic zone: strong lytic zone = ++; weak lytic zone = +; no lytic zone = −; conditions: 6 μg
Experimental: as §1

[12] = test system: Staphylococcus aureus, NRS-71; assay: plate lysis assay (spectrum of lytic activity); type: cell-based; design: key to strength of lytic zone: strong lytic zone = ++; weak lytic zone = +; no lytic zone = −; conditions: 6 μg
Experimental: as §1

[13] = test system: Staphylococcus epidermidis, NRS-101; assay: plate lysis assay (spectrum of lytic activity); type: cell-based; design: key to strength of lytic zone: strong lytic zone = ++; weak lytic zone = +; no lytic zone = −; conditions: 6 μg
Experimental: as §1

[14] = test system: Staphylococcus aureus, NRS-14; assay: plate lysis assay (spectrum of lytic activity); type: cell-based; design: key to strength of lytic zone: strong lytic zone = ++; weak lytic zone = +; no lytic zone = −; conditions: 6 μg; S. aureus NRS-14, VISA
Experimental: as §1

B1: SH3_5GRCS: PlyGRCS cell wall binding SH3_5 domain, amino acids 150-250, SEQ ID NO: 7 (protein)
chain: NTFGNWKQNQYGTYYRNENATFTCGFLPIFARVGSPKLSEPNGYWFQPNGYTPYDEVCLSDGLVWIGYNWQGTRYYLPVRQWNGKTGNSYSIGLPWGVFS
modifications: Synthetically generated polypeptide (SH3_5GRCS (amino acids 150-250))
[1]
  lytic activity (in words): little to no lytic activity
[1]; listed as SH3_5 binding domain
  lytic activity (in words): lacked activity
[2]
  Tm: 44.5 °C
S. aureus NRS-14
  binding to staphylococcal cell wall: possessed the ability to specifically bind staphylococci
S. aureus NRS-14; listed as SH3_5 binding domain
  binding to staphylococcal cell wall: interact directly with the staphylococcal cell wall

B2: CHAPGRCS: PlyGRCS catalytic CHAP domain, amino acids 1-140, SEQ ID NO: 6 (protein)
chain: MKSQQQAKEWIYKHEGTGVDFDGAYGFQCMDLAVAYVYYITDGKVRMWGNAKDAINNDFKGLATVYENTPSFKPQLGDVAVYTNSQYGHIQCVISGNLDYYTCLEQNWLGGGFDGWEKATIRTHYYDGVTHFIRPKFSAS
modifications: Synthetically generated polypeptide (CHAPGRCS (amino acids 1-140))
[3]
  strength of lytic zone: −
[4]
  strength of lytic zone: −
[5]
  strength of lytic zone: −
[6]
  strength of lytic zone: −
[7]
  strength of lytic zone: −
[8]
  strength of lytic zone: −
Bacillus pumulis, BJ0055
  strength of lytic zone: −
[9]
  strength of lytic zone: −
[10]
  strength of lytic zone: −
[1]
  lytic activity relative to full-length PlyGRCS: 8-10%
[1]; listed as CHAP domain
  lytic activity relative to full-length PlyGRCS: about 10%
[11]; S. aureus NRS-384
  lytic activity on plates (in words): relatively weak clearing zones
[11]; S. aureus NRS-384, MRSA
  strength of lytic zone: +
[12]; S. aureus NRS-71
  lytic activity on plates (in words): relatively weak clearing zones
[12]; S. aureus NRS-71, MRSA
  strength of lytic zone: +
[13]; S. epidermidis NRS-101
  lytic activity on plates (in words): relatively weak clearing zones
[13]; S. epidermidis NRS-101, MRSE
  strength of lytic zone: +
[14]
  strength of lytic zone: −
[2]
  Tm: 44.8 °C

Source: patent US9872893B2, “Endolysins active against Staphylococcus bacteria, pharmaceutical compositions, and methods relating thereto” (priority 2014, dated 2018)
